Experimental data reported in publication PMC9637774.
Where a chain is given by its changes, count along the chain named.

Legend:
[1] = molecular target: T1, Dicer-1 (Dcr-1);Loqs-PB (Loquacious isoform PB) (Drosophila melanogaster;Drosophila …, UniProt Q9VCU9;Q9VJY9 1-2249;1-465, |); test: cryo-EM structure
[2] = molecular target: T1, Dicer-1 (Dcr-1);Loqs-PB (Loquacious …); test: competition
[3] = molecular target: T1, Dicer-1 (Dcr-1);Loqs-PB (Loquacious …); test: cryo-EM structure; remark: listed apart in the source
[4] = molecular target: T1, Dicer-1 (Dcr-1);Loqs-PB (Loquacious …); test: cryo-EM structure; remark: listed apart in the source

T1 sequence (Q9VCU9 whole entry, chain 1 of 2, canonical isoform): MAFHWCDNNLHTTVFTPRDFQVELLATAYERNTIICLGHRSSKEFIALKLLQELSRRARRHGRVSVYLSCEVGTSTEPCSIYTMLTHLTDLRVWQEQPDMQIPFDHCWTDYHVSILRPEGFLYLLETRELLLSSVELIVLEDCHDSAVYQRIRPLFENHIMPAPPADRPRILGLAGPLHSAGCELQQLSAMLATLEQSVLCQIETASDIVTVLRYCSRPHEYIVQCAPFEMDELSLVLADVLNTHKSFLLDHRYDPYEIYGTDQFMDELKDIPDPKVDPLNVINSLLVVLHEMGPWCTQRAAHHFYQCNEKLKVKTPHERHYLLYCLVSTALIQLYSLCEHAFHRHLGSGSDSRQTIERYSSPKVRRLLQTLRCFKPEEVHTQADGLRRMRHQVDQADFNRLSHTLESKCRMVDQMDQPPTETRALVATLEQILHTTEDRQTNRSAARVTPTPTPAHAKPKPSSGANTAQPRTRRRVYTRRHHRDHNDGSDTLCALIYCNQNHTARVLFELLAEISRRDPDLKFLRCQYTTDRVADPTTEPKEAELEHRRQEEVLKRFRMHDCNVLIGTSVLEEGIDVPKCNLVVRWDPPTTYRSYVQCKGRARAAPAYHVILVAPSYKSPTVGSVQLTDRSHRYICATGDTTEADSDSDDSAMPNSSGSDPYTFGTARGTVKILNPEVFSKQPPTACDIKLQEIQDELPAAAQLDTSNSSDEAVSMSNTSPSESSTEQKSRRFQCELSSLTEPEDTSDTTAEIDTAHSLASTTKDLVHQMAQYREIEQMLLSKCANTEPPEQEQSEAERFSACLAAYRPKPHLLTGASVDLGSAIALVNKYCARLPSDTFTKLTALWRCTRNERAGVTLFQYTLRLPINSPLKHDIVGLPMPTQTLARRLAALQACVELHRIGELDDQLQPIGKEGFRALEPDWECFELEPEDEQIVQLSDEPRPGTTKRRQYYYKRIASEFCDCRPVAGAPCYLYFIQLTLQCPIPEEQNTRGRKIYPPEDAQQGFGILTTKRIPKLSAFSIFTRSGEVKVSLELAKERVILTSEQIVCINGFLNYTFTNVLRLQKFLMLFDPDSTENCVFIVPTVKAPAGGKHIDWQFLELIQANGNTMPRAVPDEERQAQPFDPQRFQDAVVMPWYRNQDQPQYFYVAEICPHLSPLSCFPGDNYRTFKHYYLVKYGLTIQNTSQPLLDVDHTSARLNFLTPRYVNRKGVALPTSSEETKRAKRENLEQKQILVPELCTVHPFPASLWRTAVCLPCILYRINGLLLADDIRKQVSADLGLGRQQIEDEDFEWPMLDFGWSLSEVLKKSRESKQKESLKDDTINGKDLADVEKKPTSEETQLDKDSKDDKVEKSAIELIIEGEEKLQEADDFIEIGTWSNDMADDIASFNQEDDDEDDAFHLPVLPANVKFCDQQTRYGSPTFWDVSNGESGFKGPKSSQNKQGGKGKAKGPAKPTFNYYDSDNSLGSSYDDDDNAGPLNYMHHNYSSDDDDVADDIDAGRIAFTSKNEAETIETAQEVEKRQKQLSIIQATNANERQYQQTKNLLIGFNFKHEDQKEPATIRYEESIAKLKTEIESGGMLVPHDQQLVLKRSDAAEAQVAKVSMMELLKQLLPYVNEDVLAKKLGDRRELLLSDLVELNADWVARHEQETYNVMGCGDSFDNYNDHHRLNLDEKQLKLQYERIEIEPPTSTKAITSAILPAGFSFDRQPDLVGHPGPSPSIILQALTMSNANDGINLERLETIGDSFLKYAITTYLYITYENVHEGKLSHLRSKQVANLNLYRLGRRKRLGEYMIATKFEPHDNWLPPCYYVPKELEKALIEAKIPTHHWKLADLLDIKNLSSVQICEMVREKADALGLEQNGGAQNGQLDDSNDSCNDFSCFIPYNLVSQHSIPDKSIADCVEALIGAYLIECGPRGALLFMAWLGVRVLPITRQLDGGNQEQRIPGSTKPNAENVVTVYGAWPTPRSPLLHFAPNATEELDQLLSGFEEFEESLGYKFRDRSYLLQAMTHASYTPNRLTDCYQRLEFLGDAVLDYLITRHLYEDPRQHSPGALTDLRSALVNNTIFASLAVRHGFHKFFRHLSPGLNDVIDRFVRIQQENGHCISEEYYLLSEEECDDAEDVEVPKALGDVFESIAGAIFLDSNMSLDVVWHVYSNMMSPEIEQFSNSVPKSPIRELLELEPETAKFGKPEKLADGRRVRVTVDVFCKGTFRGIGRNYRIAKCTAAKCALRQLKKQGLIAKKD
T1 sequence (Q9VJY9 whole entry, chain 2 of 2, canonical isoform): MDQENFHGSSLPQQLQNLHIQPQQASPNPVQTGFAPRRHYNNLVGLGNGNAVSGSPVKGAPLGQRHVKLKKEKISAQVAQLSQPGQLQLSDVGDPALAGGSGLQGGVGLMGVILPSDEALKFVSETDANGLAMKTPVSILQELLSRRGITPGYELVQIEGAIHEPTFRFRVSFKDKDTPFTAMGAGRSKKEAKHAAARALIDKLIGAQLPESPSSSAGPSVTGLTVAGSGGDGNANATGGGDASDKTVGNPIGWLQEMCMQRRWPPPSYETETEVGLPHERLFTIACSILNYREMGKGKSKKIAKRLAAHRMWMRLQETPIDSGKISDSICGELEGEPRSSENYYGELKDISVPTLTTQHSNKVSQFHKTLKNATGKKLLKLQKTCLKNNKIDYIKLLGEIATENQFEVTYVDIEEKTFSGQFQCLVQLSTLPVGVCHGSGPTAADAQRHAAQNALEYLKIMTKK

B1: model pre-miRNA (structured_RNA)
RNA: UGAGGUAGUAGGUUGUAUAGUAGUAAUUACACAUCAUACUAUACAACCUACUACCUCUCU
modifications: 5' phosphate
[1]
  binding result: binds

B2: pre-let-7 (structured_RNA)
RNA: B1 RNA with C47U, C48G, A50G, C54G, C57U
modifications: 5' phosphate
[2]
  binding result: binds

B3: nicked model pre-miRNA (5' arm cleaved) (structured_RNA)
RNA 1: UGAGGUAGUAGGUUGUAUAGUA
RNA 2: GUAAUUACACAUCAUACUAUACAACCUACUACCUCUCU
modifications: 5' phosphate
[3]
  binding result: binds

B4: model miRNA/miRNA* duplex (dsRNA)
RNA 1: UGAGGUAGUAGGUUGUAUAGUA
RNA 2: CUAUACAACCUACUACCUCUCU
modifications: 5' phosphates
[4]
  binding result: binds
